Results taken from the DeepSol protein solubility set.

experiment: soluble on expression in E. coli; label from the status in PepcDB or PDB records

Soluble on expression in E. coli, not soluble:
MGSDKIHHHHHHMEIHSSAAAEVFPVCRSLLGKLPAHSHNRSVAPTVCDYYPQIMKTYNSKMTTQHSSDIRNSQNISASFVTPHDAPVTSRKYVPKFNSNNHRIKTAAAFEKGSDIYHAVRPNYPNSVIELLNLSPNSRVLDIGCGTGKLTEQIAQQTSSVYALDPSKDMLDSFRSTLDIPSWQATAEQTAVSDSRFSTLTCAQTWHWVEPLAASAELDRISTDDAQLLLVWNTLDVSVPWVHRLSRIMHSGDTLAEGFIPHVAQPWELVSVLRGKHAQELYPDQIHTLAHTRSYWLRASEKTREKLTHNLSWYLTDHLELPSTSLVEIPYRFDAFLYKKALVKTQ
MGSDKIHHHHHHMEIKQLRYFIEVAKREHISETALELNIAQSAISRQITLLEQELNVSLFKKQGRNITLTSEGKLLFNEALRIIEHLDSTIEQFQSHGLTKNKSIYIGYDESDVSHMLLPLIQTFHLQNDTHVIPSLLDHDTIINSVLNGNIDIGFTELTPEIRKHKQLHMLPLFEEHYHLYAPSDDPITMATHPPLIQFEHSHIYCLAPFAETVKKQLRKITKSDVYTISSQPLAQYLLRQKEGYIISSQNIHLPESKSWIDIKLDHTELKRTICAITKEPYTKSDIGILLTLIQQLMTKTSTFH
MGSDKIHHHHHHMEILMLKTFKAVVDEDGIKGAADKLHTVQSNITSRIKKLEKELDTKLFTIIGRKLQLTPSGQQLCEYADQILQLEYQATSAILRNKGTYELRVGMPETFAAVHMPMALKKLKLNHAEIRTKIHTDTSERLVFSVLNNKVDCAAIGNAPKHENLIIIPIVKEELIMVTPRDSEHDPVLFVRDEGCGYRKHALIWQQKAGRGNDELMVMSSADGVLGCIAAGLGYTIIGKNMVAGSRYEKSLVMTPVSHGPKHVQLSIVYRKDSPLESGILTLAKLLTK
MGSDKIHHHHHHMEKDIFVELNFLIMIIDDALPKFDLPVDFVTDDSITGDILNQYGRFPCHIKAGVFVLCTRGTVRATINLSEYTITHNDFVTVLPGSFIQIHEVSSDTRVCFAGFSSEFISRVSYVETYLDFLPMILDNPIMALQEEVAQLYRNAFSLLIRAYSLPNTLDNKEILMSIFTIFFQGVGELYKRCKPTTNEPIKREHELYRQFIQLLMTHYTQEHEVSFYAKKCGVTPAHFSGAIRKASGHSPLAIITGIIIMNAKAQLKSTRLPVKEIAFSLGFNNLSFFNKYFRKHVKMTPQEYREC
MGSDKIHHHHHHMEKEIPEMFASNYQDWQPIYNWDTCKAGRKEYGKFLCSFLTSSKDDLVVNLNGSWGTGKTELLRRLYVELAERQHPVVYINAWESDFCDDALSVISSEFLNQLEVAFGHNGDPKWLSKFNNLKQKLGKALKFGSLGATMNGEPNAATLLGATSAAVNELPDLASAAVSDNNIRLIEKISSNHANRVQAMKEVREQISALADTMQMVCEAELPIVVLVDELDRCRPTYAIEMLEVIKHFFEARGCVFLVATDTVALEHSIKAVYGASFESEKYLRRFFDRRIALPPLSITQYLKAKALDFTRYQTDQLRLFPFTAINAQLIKIFALLFENAQMSLRDVEQSLQKCVASLEYLQSLGTRPQIVNVIVLMMGSLSSNYRPNRFRIDLQIKYFPMELV
MGSDKIHHHHHHMEKLYLKIGNQDEFDICEKVQGLHFLSDDSTPVTTNQFLEISGADGSQFQYATFGKYQVVANFFLEFKSWEDYKLAKHQINRIFSTKKLIRMRTNVESAIVRYVYPNFPEIKPISDGANSSTFSVNFDNPSGYRYSIDRSDELSKVQYGMYLLDNIYPEYRFTDKSFRVYNPSDIAIDPYLGKHDLKIISKFSGNSLKITNTTNGTSWSYNKSSNGSETVLLDGIVTTVNGNPATVNTDYGHIVLNTGWNDIVVSGTNSNDITFSFPFIYI
MGSDKIHHHHHHMEKQYEYVHEKFRHLVIASNQERIEFLDEPRWVGYAVANKIIDNLVSLMNKPKRPRMFNLLVVGDSNNGKTTLIRHFYDLYGIPFVDSQSDGIRPIILAEAPPSANEKELYISLLERFYVPYRPTDSVAKLRYQTIHLFREYKVKMLIIDEFHSLLVGTPRLQRQVMNAIKMLCNELQIPIVGVGTKDAIRVLHTDPQHASRFDVAELPTWKLDKDFQKLLFQFQGILPLKKCSNLQSPELATKIHTISGGNLGNVHRLLTACAIEAITTGTEQITLDIIEHNSWVQPTQGLRKIIG
MGSDKIHHHHHHMEKRLDYITDLMALGPTANARTIQRRQTAHRLAIAEAWQVKPGEKILEIGCGQGDLSAVLADQVGSSGHVTGIDIASPDYGAPLTLGQAWNHLLAGPLGDRLTVHFNTNLSDDLGPIADQHFDRVVLAHSLWYFASANALALLFKNMAAVCDHVDVAEWSMQPTALDQIGHLQAAMIQGLLYAIAPSDVANIRTLITPDTLAQIAHDNTWTYTAGTIVEDPTLDDAHWEIATTNALLTELKLSTDLRDRVKPLLEAMSHNGTASLATFTGRITF
MGSDKIHHHHHHMELVIRDIRKRFQETEVLRGASYRFYSGKITGVLGRNGAGKTTLFNILYGDLAADNGTICLLKDNHEYPLTDKDIGIVYSENYLPEFLTGYEFVKFYMDLHPSDDLMTIDDYLDFMEIGQTERHRIIKGYSDGMKSKLSLICLMISKPKVILLDEPLTAVDVVSSIAIKRLLLELSEDHIIILSTHIMALAEDLCDIVAVLDKGKLQTLDIDRKHEQFEERLLQVLKGDEYDK
MGSDKIHHHHHHMELYRDPSQPIEVRVRDLLSRMTLEEKVAQLGSVWGYELIDERGKFSREKAKELLKNGIGQITRPGGSTNLEPQEAAELVNEIQRFLVEETRLGIPAMIHEECLTGYMGLGGTNFPQAIAMASTWDPDLIEKMTTAVREDMRKIGAHQGLAPVLDVARDPRWGRTEETFGESPYLVARMGVSYVKGLQGEDIKKGVVATVKHFAGYSASEGGKNWAPTNIPEREFKEVFLFPFEAAVKEANVLSVMNSYSEIDGVPCAANRKLLTDILRKDWGFEGIVVSDYFAVKVLEDYHRIARDKSEAARLALEAGIDVELPKTECYQYLKDLVEKGIISEALIDEAVTRVLRLKFMLGLFENPYVEVEKAKIESHRDIALEIARKSIILLKNDGILPLQKNKKVALIGPNAGEVRNLLGDYMYLAHIRALLDNIDDVFGNPQIPRENYERLKKSIEEHMKSIPSVLDAFKEEGIEFEYAKGCEVTGEDRSGFEEAIEIAKKSDVAIVVVGDKSGLTLDCTTGESRDMANLKLPGVQEELVLEVAKTGKPVVLVLITGRPYSLKNVVDKVNAILQVWLPGEAGGRAIVDIIYGKVNPSGKLPISFPRSAGQIPVFHYVKPSGGRSHWHGDYVDESTKPLFPFGHGLSYTKFEYSNLRIEPKEVPPAGEVVIKVDVENIGDRDGDEVVQLYIGREFASVTRPVKELKGFKRVSLKAKEKKTVVFRLHMDVLAYYNRDMKLVVEPGEFKVMVGSSSEDIRLTGSFSVVGEKREVVGMRKFFTEACEE
MGSDKIHHHHHHMEMRFFVLGAGSWGTVFAQMLHENGEEVILWARRKEIVDLINVSHTSPYVEESKITVRATNDLEEIKKEDILVIAIPVQYIREHLLRLPVKPSMVLNLSKGIEIKTGKRVSEIVEEILGCPYAVLSGPSHAEEVAKKLPTAVTLAGENSKELQKRISTEYFRVYTCEDVVGVEIAGALKNVIAIAAGILDGFGGWDNAKAALETRGIYEIARFGMFFGADQKTFMGLAGIGDLMVTCNSRYSRNRRFGELIARGFNPLKLLESSNQVVEGAFTVKAVMKIAKENKIDMPISEEVYRVVYEGKPPLQSMRDLMRRSLKDEFWASVVDSSL
MGSDKIHHHHHHMENALLVGLSRQVVLERQMDVVANNLANLNTNGFKAERSVFQEFLNTGAHEDNFARPDRRVSFVQDRATYHDLSTGALQETKNPLDVAIDGKGFLVVQTPQGERFTRDGSLTINAQGQLVNGSGFPVLGTGGPIVIQPTDKELSISPDGRVSVVEGTSIIDSLRGKLRVVTFDRPQSLIKQGGNLFAATSDQGTPDTKSMVRQGYVEKSNVNSVLEMTRMIDVTRTYTQISAMLQQESELRKTAIEKLAEVPA
MGSDKIHHHHHHMENLIFDIGFHKGEDTLFYLLKGYRVIAVDADPDLINEWQNIFKKYIENGKLLLLNYVISDTNDVDTDFYIGPNTIWSSTKVSISSRMCCKAIKKKIKSKRLDHLFHEYGTPFYCKIDIEGNDIIALQTMEKVSEKPLYISVETECIGEDEDIAGHELDTLNALYQLGYRKFKLVDQRTLTVLDYNCFYKNNSEHNWFEQIETNCKYAEELIVLSDTDQRVKFTDFFPGSSGPFGEELAGKWYDYPQAKEMLKKHREDKMRLNEPAWTFWCDWHATF
MGSDKIHHHHHHMENVVPPFKVDVAGTFLLPAALREAREQYRNEQISLLTLRAVEDAEIRNLVDRLKAEGLKVVTDGRFRSDAWPLDFMCGLDGIRFRDDRKTSVELTGRIDVHHHPVLDDFVFLTGVTGGDVIAKQVLPAPSRLLAELMKDANRTELDSVYPDREILLVDLAQTYQKLIMELYRSGCRYLQLDDATRTVTDNAIRVNNMALENLPADLFIAFHSPTEMLFSLQGIHAFFLDYDSECCGKNRLLWFIREKQSVFGFVLSHYPVEEELEELRAKIDQIIRYIPSHRFSLCIPNAEVLPSESYEAAEEKQWHTLKMAEMVAGELWPEEG
MGSDKIHHHHHHMESVGDVLKRQPSRFYYQDLVQKIMKDPDVAAFIQQESLTPKELNRSISKFNQYITERDKFLRGDTDYIAKGYKPILVKNHGYADVSYEETPELIAAEKEAAIKNRLKLINLPASLKKASLAQVDLDDLGRLPVFEKLLAFVEQYPAIRKGLYLYGDFGVGKSFMVAALAHDLSEKRGVSSTLLHYPSFVIDVKNAISDGNVKTLVDEIKLSEVLILDDIGAEQSTVWVRDEILQVILQYRMQENLPTFFTSNFNFEDLEKHFAKVKHGNDETWEARRVMERIRYLAEETRLEGVNRR
MGSDKIHHHHHHMETVNILGTGSAMVTKCYNTCFTLSNGDEHFLVDTGGGNTILTNLEKLHIGIDKIHNVFISHRHNDHITGIIWIIRAVAQRIINGKYDGDLKIYCCKENIEVINTICKLLLEKKFTKYMGNRIVFSEIYDGCRLKVLDWDIEFFDIKSTKQLQFGFTTVLKSGKKLTFLGDEPYRENLYEYANNSDYIFHEAFCLYSEKDIFKPYEKHHATVKDACENADKLSVKNIILYHTEDKNIEKRKELYIGEGSKFFKGNIIVPDDLETIELK
MGSDKIHHHHHHMEVDNKRRHSEDELKQEAVKKIKSQEPNYAYLETVVREKLDFDSEKICCITLSPLNVYCCLVCGHYYQGRHEKSPAFIHSIDENHHVFLNLTSLKFYMLPQNVQILHDGEVQLLNSIKFAAYPTYCPKDLEDFPRQCFDLSNRTYLNGFIGFTNAATYDYAHSVLLLISHMVPVRDHFLLNHFDNQGEFIKRLSICVKKIWSPKLFKHHLSVDDFVSYLKVREGLNLNPIDPRLFLLWLFNKICSSSNDLKSILNHSCKGKVKIAKVENKPEASESVTGKVIVKPFWVLTLDLPEFSPFEDGNSVDDLPQINITKLLTKFTKSRSSSTSTVFELTRLPQFLIFHFNRFDRNSDHPVKNRNQTLVEFSSELEILHVKYRLKANVVHVVIKQPSTDGNAFNGDEKSHWITQLYDNKSEKWIEIDGINTTEREAELLFLKETFIQVWEKQE
MGSDKIHHHHHHMEVIHPRCAGVDISKKDAKVCVRIQGRGGRSTTSTITTWGSMTGQILGLKEHLLDEHVDLVVMEATGDYWRPFYYLLEDDGLNIILVNAHDARNVPGRKTDVSDAAWLADLGAHGLVRASFVPPPPIRELRDLTRARTIITQERTREIQRLEKLLEDACIKLSSVASNITGVSGRLILQALIDGQTDPAALAEMAQRRLRSKIPELTQALNGRFTEHHRYMTGLYLHRIDAHTADINDLSARIEAAMEPFRFARELLVSIPGFSTTIAEIFIAETGADMSAFATAGQLASWAGTSPGSNESAGRVKSTKTRPGNRYLKGALGIAALSCAKSKNTYLGARYRRIASRRGPAKALVAVEHSILTAAWHMLTTGELYNDPGADYFTRQTPVKTMARAVRQLESLGYQVILEPLQQTG
